Here are results for seven molecules from patent publication US20210388081A1 (Memorial Sloan Kettering, published 2021).

In assay [1] the target is T1, FcRL4, overexpressed on 3T3 cells (UniProt Q96PJ5 20-515, limits assumed).
T1 construct: whole, on cells
T1 sequence (looked up): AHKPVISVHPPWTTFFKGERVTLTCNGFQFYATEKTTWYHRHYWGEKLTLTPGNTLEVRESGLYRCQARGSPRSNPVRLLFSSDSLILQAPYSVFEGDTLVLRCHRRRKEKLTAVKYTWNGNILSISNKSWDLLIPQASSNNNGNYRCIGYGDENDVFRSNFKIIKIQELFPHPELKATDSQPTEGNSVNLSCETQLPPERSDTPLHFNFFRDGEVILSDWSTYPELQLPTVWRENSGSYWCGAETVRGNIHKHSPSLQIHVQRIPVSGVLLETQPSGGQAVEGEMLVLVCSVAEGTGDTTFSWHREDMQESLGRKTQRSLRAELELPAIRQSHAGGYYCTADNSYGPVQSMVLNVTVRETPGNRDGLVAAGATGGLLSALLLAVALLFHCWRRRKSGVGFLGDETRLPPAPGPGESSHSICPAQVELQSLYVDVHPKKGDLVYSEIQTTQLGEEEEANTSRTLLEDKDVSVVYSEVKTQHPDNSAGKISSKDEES
Nature of the assay: phage clone on 3T3-FcRL4 cells.

For assay [2], the target named is T2, FcRL1, overexpressed on 3T3 cells (UniProt Q96LA6 17-429, limits assumed).
T2 construct: whole, on cells
T2 sequence (looked up): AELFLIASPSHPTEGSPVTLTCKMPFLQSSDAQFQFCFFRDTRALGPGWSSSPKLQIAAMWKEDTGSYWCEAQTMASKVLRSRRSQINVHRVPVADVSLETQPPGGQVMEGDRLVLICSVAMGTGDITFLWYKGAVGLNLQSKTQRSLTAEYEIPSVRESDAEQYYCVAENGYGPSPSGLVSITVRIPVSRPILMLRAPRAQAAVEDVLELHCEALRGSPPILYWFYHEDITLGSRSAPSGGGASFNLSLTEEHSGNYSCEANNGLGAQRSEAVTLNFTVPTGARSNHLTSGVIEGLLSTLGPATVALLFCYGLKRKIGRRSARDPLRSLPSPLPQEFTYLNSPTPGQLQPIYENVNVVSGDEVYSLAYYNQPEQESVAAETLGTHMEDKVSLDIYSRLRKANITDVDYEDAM
Nature of the assay: phage clone on 3T3-FcRL1 cells.

B1: ET200-123 (scFv)
scFv: QAVLTQPPSASGTPGQRVTISCSGSSSNIGSNTVNWYQQLPGTAPKLLMYNNDQRPSGVPDRFSGSKSGTSASLAISGLQSEDEADYYCAAWDDSLNGYVFGPGTKVTVLGSRGGGGSGGGGSGGGGSLEMAQVQLVESGAEVKKPGASVKVSCKASGYTFTSYGISWVRQAPGQGLEWMGWISAYNGNTNYAQKLQGRVTMTTDTSTSTAYMELRSLRSDDTAVYYCARDLSRGANPHYYYYYGMDVWGQGTTVTVSSTSGQAGQHHHHHHGAYPYDVPDYAS
notes: screened as phage clone; entry is VL-linker-VH-His tag-HA tag
B1: the binding result in assay [1] and in assay [2] was “no binding” throughout.

B2: ET200-010 (scFv)
scFv: QSALTQPASVSGSPGQSITISCTGTSSDVGGYNSVSWYQQHPGKAPRLMIYDVSNRPSGVSNRFSGSKSGNTASLTISGLQAEDEADYYCSSYTSSSTPLVFGTGTKVTVLGSRGGGGSGGGGSGGGGSLEMAQVQLVQSGAEVKKPGASVKVSCKASGYTFTSYGISWVRQAPGQGLEWMGWISAYNGNTNYAQKLQGRVTMTTDTSTSTAYMELRSLRSDDTAVYYCARGAVAYHDWGQGTLVTVSSTSGQAGQHHHHHHGAYPYDVPDYAS
notes: as for B1
As to B2, the binding result in assay [1] and in assay [2] was “no binding” in each case.

B3: ET200-125 (scFv)
scFv: NFMLTQPHAVSESPGKTVTISCTRSSGSIASNYVQWYQQRPGSSPRTVIYEDNQRPSGVPGRFSGSIDSSSNSASLTISGLKTEDEADYYCQSYDSTSVLFGGGTKLTVLGSRGGGGSGGGGSGGGGSLEMAEVQLVQSGAEVKKPGSSVKVSCKASGGTFSSNSLSWVRQAPGQGLEWMGRIFPILGITNYAQKFQGRVTITADKSTSTAYMELSSLRSEDTAVYYCARGNYQWYDAFDIWGQGTMVTVSSTSGQAGQHHHHHHGAYPYDVPDYAS
notes: as for B1
Regarding B3, the binding result in assay [1] and in assay [2] was “no binding” throughout.

B4: ET200-009 (scFv)
scFv: QSVLTQPPSASGTPGQTVTISCSGSNSNIGSNYVYWYQQLPGTAPKLLIYRNNQRPSGVPDRFSGSKSGTSASLAISGLRSEDEADYYCAAWDDSLSAYVFGTGTKVTVLGSRGGGGSGGGGSGGGGSLEMAQVQLVQSGAEVKKPGASVKVSCKASGYTFTSYGISWVRQAPGQGLEWMGWISAYNGNTNYAQKLQGRVTMTTDTSTSTAYMELRSLRSDDTAVYYCARSSGNMVSWKDMWGQGTLVTVSSTSGQAGQHHHHHHGAYPYDVPDYAS
notes: as for B1
Take B4: the binding result in assay [1] and in assay [2] was “no binding” in each case.

B5: ET200-121 (scFv)
scFv: QSVLTQPPSVSGAPGQRVTVSCTGSRSNIGAGYDVHWYQQLPGTAPKLLIYGNSNRPPGVPDRFSGSKSGTSASLVITGLQAEDAADYYCQSYDNTVRESPYVFGTGTKVTVLGSRGGGGSGGGGSGGGGSLEMAEVQLVQSGAEVKKPGASVKVSCKVSGYTLTELSMHWVRQAPGKGLEWMGGFDPEDGETIYAQKFQGRVTMTEDTSTDTAYMELSSLRSEDTAVYYCATESNLVSRHYYYYGMDVWGQGTTVTVSSTSGQAGQHHHHHHGAYPYDVPDYAS
notes: as for B1
B5: the binding result in assay [1] and in assay [2] was “no binding” each time.

B6: ET200-005 (scFv)
scFv: QPVLTQPPSVSVVPGKTARITCGGKNIGSKSVHWYQQKPGQAPVVVIHYDSDRPSGIPERFSGSNSGNTATLTISRVEAGDEADYYCQVWDSSSDHPYVFGTGTKVTVLGSRGGGGSGGGGSGGGGSLEMAQVQLVQSGAEVKKPGASVKVSCKASGYTFTNYGISWVRQAPGQGLEWMGWISAYNGNTNYAHKLQGRVTMTTDTSTSTANMELRSLRPDDTAVYYCARSYFGSHDYWGQGTLVTVSSTSGQAGQHHHHHHGAYPYDVPDYAS
notes: as for B1
On to B6, for which the binding result in assay [1] and in assay [2] was “no binding” in each case.

B7: ET200-124 (scFv)
scFv: SYVLTQPPSVSVAPGKTARISCGGNDIGSKSVFWYQQRPGQAPVLVVYDDSDRPSGLPERFSGFNSGNTATLTISRVEAGDEADYYCQVWDSSSDHYVFGTGTKVTVLGSRGGGGSGGGGSGGGGSLEMAQVQLVESGGGLVQPGRSLRLSCAASGFTFDDYAMHWVRQAPGKGLEWVSGISWNSGSIGYADSVKGRFTISRDNAKNSLYLQMNSLRAEDTALYYCAKDITYGSGSYGAFDIWGQGTMVTVSSTSGQAGQHHHHHHGAYPYDVPDYAS
notes: as for B1
As to B7, the binding result in assay [1] and in assay [2] was “no binding” each time.
